Source: PMC9609667, “Serendipitous Discovery of a Competitive Inhibitor of FraB, a Salmonella Deglycase and Drug Target” (Pathogens, 2022)

What was measured:
[1] = biological target: FraB, a Salmonella deglycase (Salmonella); assay: native MS; 3 uM FraB or FrlB mixed with 150, 300 or 450 uM 2-deoxy-6-P-GA; 200 mM ammonium acetate (pH adjusted to 7.4 for FraB); mixed at 25 °C, incubated 30 min at room temperature; nano-ESI, Q Exactive UHMR Orbitrap
[2] = biological target: FrlB deglycase (Salmonella) (Salmonella); assay: as above
FrlB = biological target: T1, FrlB (Salmonella enterica, UniProt Q8ZJX7); assay: native mass spectrometry (dimer with one or two ligands); about […] inhibition at […] in coupled assay; format: binding
T1 construct: gene STM4540; recombinant FrlB, His6 tag removed
T1 sequence (Q8ZJX7 1-343): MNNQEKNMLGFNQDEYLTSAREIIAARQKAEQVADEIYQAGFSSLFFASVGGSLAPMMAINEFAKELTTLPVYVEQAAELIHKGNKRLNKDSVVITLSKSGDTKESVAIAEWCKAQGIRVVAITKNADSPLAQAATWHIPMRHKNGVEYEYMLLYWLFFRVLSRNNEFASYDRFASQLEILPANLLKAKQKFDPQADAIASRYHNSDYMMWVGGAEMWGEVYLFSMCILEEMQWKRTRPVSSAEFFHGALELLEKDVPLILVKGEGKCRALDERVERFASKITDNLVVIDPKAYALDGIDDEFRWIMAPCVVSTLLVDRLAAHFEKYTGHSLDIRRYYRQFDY

FraB = biological target: T2, FraB (Salmonella enterica, UniProt Q8ZLD0); assay: G6PDH-coupled deglycase assay, Michaelis-Menten analysis; binding confirmed by native MS; format: biochemical
T2 construct: gene STM3601; 325-aa construct, N-terminal His6-tag

Compound FraB, a Salmonella deglycase (enzyme) has a stoichiometry N [1] of 2.
For FrlB deglycase (Salmonella) (enzyme), the stoichiometry N [2] was 2.
With O=C(O)C[C@@H](O)[C@H](O)[C@H](O)COP(=O)(O)O [2-deoxy-6-P-GA, 2-deoxy-6-phosphogluconate] the “native mass spectrometry (dimer with one or two ligands); about 50% inhibition a” value (FrlB) was “These results confirm the direct interaction of 2-deoxy-6-P-GA to FraB and FrlB” and the Ki (FraB) was 3.3 µM.
